The record followed here is the supplement of paper PMC10567573.

The chains are these.
B1: BTBD1 (parent)
chain: FVLGKGRGAAAAGGPQRIPAHRFV
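Also: lentivirally expressed fusions sorted by FACS into six bins by GFP to DsRed ratio, PSI derived from sequencing read proportions per bin multiplied by bin number.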

In the data set the parent is B1. In words: protein stability index of a GFP-peptide fusion (GPS, HEK-293T) (PSI 1-6); higher = more stable. Particulars: c terminus: a fixed tail appended.
On to FVLGKGRGAAHAGGPQRIPAHRFV, for which the protein stability index amounted to 1.96.
Consider FVLGKGRGAAFAGGPQRIPAHRFV, for which the protein stability index was found to be 1.04.
As for FVLGKGRGAAKAGGPQRIPAHRFV, the figure is 1.77.
As to FVLGKGRGAACAGGPQRIPAHRFV, the protein stability index stood at 2.71.
For FVLGKGRGAAEAGGPQRIPAHRFV, the protein stability index turned out to be 1.94.
As for FVLGKGRGAADAGGPQRIPAHRFV, the figure is 1.14.
As for FVLGKGRGAAIAGGPQRIPAHRFV, the figure is 1.87; as for FVLGYGRGAAAAGGPQRIPAHRFV, 2.95; as for FVLGVGRGAAAAGGPQRIPAHRFV, 1.38.
For FVLGTGRGAAAAGGPQRIPAHRFV the value was 2.85; for FVLGSGRGAAAAGGPQRIPAHRFV, 1.98; for FVLGKMRGAAAAGGPQRIPAHRFV, 1.38.
Regarding FVLGKDRGAAAAGGPQRIPAHRFV, the protein stability index was 1.88.
As for FVLGKRRGAAAAGGPQRIPAHRFV, the figure is 1.78.
As for FVLGKQRGAAAAGGPQRIPAHRFV, the figure is 1.91; as for FVLGKFRGAAAAGGPQRIPAHRFV, 1.02; as for FVLGKARGAAAAGGPQRIPAHRFV, 1.97.
Take FVLGKYRGAAAAGGPQRIPAHRFV: the protein stability index stood at 3.51.
For the variant FVLGKERGAAAAGGPQRIPAHRFV, the protein stability index was found to be 2.1.
As for FVLGKIRGAAAAGGPQRIPAHRFV, the figure is 2.4; as for FVLGKVRGAAAAGGPQRIPAHRFV, 1.69; as for FVLGKLRGAAAAGGPQRIPAHRFV, 2.69.
As for FVLGKKRGAAAAGGPQRIPAHRFV, the figure is 1.69; as for FVLGKPRGAAAAGGPQRIPAHRFV, 1.82.
For FVLGKSRGAAAAGGPQRIPAHRFV, the protein stability index is 1.44.
Consider FVLGKNRGAAAAGGPQRIPAHRFV, for which the protein stability index amounted to 2.1.
For FVLGKHRGAAAAGGPQRIPAHRFV the value was 1.67; for FVLGKTRGAAAAGGPQRIPAHRFV, 1.61.
For the variant FVLGKGRGAFAAGGPQRIPAHRFV, the protein stability index was found to be 2.27.
FVLGKGRGACAAGGPQRIPAHRFV: the protein stability index was 1.36.
With FVLGKGRGALAAGGPQRIPAHRFV, the protein stability index amounted to 1.46.
As for FVLGKGRGAMAAGGPQRIPAHRFV, the protein stability index was 1.34.
As for FVLGKGRGASAAGGPQRIPAHRFV, the figure is 2; as for FVLGKGRGADAAGGPQRIPAHRFV, 1.64.
For FVLGKGRGATAAGGPQRIPAHRFV the value was 1.91; for FVLGKGRGAVAAGGPQRIPAHRFV, 1.43; for FVLGKGRGAKAAGGPQRIPAHRFV, 2.08.
For FVLGKGRGAIAAGGPQRIPAHRFV the value was 1.52; for FVLGKGRGANAAGGPQRIPAHRFV, 1.96; for FVLGKGRGAPAAGGPQRIPAHRFV, 1.95.
On to FVLGKGRGAWAAGGPQRIPAHRFV, for which the protein stability index worked out at 1.98.
As for FVLGKGRGAHAAGGPQRIPAHRFV, the figure is 1.68; as for FVLGKGRGAEAAGGPQRIPAHRFV, 1.67; as for FVLGKGRGAQAAGGPQRIPAHRFV, 2.03.
As for FVLGKGRGAYAAGGPQRIPAHRFV, the figure is 1.79; as for FVLGKGRGARAAGGPQRIPAHRFV, 1.91.
For FVLGKGDGAAAAGGPQRIPAHRFV, the protein stability index amounted to 1.49.
As for FVLGKGQGAAAAGGPQRIPAHRFV, the figure is 1.82.
For FVLGKGIGAAAAGGPQRIPAHRFV the value was 2.15.
For FVLGKGNGAAAAGGPQRIPAHRFV the value was 1.32; for FVLGKGHGAAAAGGPQRIPAHRFV, 1.7.
For the variant FVLGKGCGAAAAGGPQRIPAHRFV, the protein stability index is 3.48.
As for FVLGKGFGAAAAGGPQRIPAHRFV, the figure is 1.27; as for FVLGKGWGAAAAGGPQRIPAHRFV, 3.44.
For FVLGKGLGAAAAGGPQRIPAHRFV the value was 3.04.
Turning to FVLGKGEGAAAAGGPQRIPAHRFV, the protein stability index came to 1.48.
As for FVLGKGTGAAAAGGPQRIPAHRFV, the figure is 2.23.
FVLGKGVGAAAAGGPQRIPAHRFV: the protein stability index worked out at 2.06.
As for FVLGKGPGAAAAGGPQRIPAHRFV, the figure is 1.98.
For FVLGKGKGAAAAGGPQRIPAHRFV the value was 1.17; for FVLGKGMGAAAAGGPQRIPAHRFV, 2.03; for FVLGKGSGAAAAGGPQRIPAHRFV, 2.24.
Consider FVLGKGYGAAAAGGPQRIPAHRFV, for which the protein stability index was found to be 1.72.
As for FVLGKGRGNAAAGGPQRIPAHRFV, the figure is 1.95.
For FVLGKGRGPAAAGGPQRIPAHRFV the value was 1.6.
With FVLGKGRGSAAAGGPQRIPAHRFV, the protein stability index stood at 1.57.
For FVLGKGRGYAAAGGPQRIPAHRFV the value was 1.87.
As for FVLGKGRGGAAAGGPQRIPAHRFV, the figure is 1.72; as for FVLGKGRGIAAAGGPQRIPAHRFV, 1.94; as for FVLGKGRGTAAAGGPQRIPAHRFV, 1.96.
As for FVLGKGRGKAAAGGPQRIPAHRFV, the figure is 1.92; as for FVLGKGRGCAAAGGPQRIPAHRFV, 2.47; as for FVLGKGRGFAAAGGPQRIPAHRFV, 1.28.
FVLGKGRGDAAAGGPQRIPAHRFV: the protein stability index worked out at 2.35.
For FVLGKGRGLAAAGGPQRIPAHRFV the value was 3.31.
Turning to FVLGKGRGVAAAGGPQRIPAHRFV, the protein stability index stood at 2.21.
For FVLGKGRGHAAAGGPQRIPAHRFV, the protein stability index stood at 2.08.
For FVLGKGRGEAAAGGPQRIPAHRFV the value was 2.72; for FVLGKGRKAAAAGGPQRIPAHRFV, 2.02; for FVLGKGRSAAAAGGPQRIPAHRFV, 1.2.
For FVLGKGREAAAAGGPQRIPAHRFV the value was 2.01; for FVLGKGRRAAAAGGPQRIPAHRFV, 1.78; for FVLGKGRLAAAAGGPQRIPAHRFV, 1.69.
For the variant FVLGKGRNAAAAGGPQRIPAHRFV, the protein stability index turned out to be 1.62.
In the case of FVLGKGRDAAAAGGPQRIPAHRFV, the protein stability index is 2.13.
As for FVLGKGRQAAAAGGPQRIPAHRFV, the figure is 1.48; as for FVLGKGRTAAAAGGPQRIPAHRFV, 2; as for FVLGKGRPAAAAGGPQRIPAHRFV, 1.55.
For FVLGKGRAAAAAGGPQRIPAHRFV the value was 1.33.
As for FVLGKGRYAAAAGGPQRIPAHRFV, the figure is 1.44; as for FVLGKGRIAAAAGGPQRIPAHRFV, 2.26.
With FVLGKGRVAAAAGGPQRIPAHRFV, the protein stability index was 1.39.
On to FVLGKGRHAAAAGGPQRIPAHRFV, for which the protein stability index was 2.31.
As for FVLGKGRFAAAAGGPQRIPAHRFV, the figure is 1.5.
